Test [1] addresses short version of the toxin domain (Ile323-the C-terminus) of MafB2_(MGI-2B16B6), no tag (N. meningitidis B16B6) (UniProt Q9JXD2). Put plainly: ITC; Nano ITC, 20 °C, 10 mM Tris-HCl pH 8.0, 100 mM NaCl, 2 mM β-ME; 50 injections of 1 μl NmMafI2 (~1.3 mM) into NmMafB2-CT2 (~0.2 mM); independent binding sites model.
The target of test [2] is T1, short version of the toxin domain (Ile323-the C-terminus) of MafB2_(MGI-2B16B6), no tag (N. meningitidis B16B6, UniProt Q9JXD2 323-483).
T1 chain: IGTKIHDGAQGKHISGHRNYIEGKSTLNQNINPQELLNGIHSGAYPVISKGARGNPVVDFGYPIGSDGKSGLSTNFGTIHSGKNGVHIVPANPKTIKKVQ
Put plainly: ITC.

Consider “MafI2_(MGI-2B16B6) with a C-terminal 6xHis-tag (from UniProt A0A0G4BSP3 1-139) (natural protein)”, for which, in test [1], the Kd was 40 nM and the stoichiometry N was determined as 1.

B1: MafI2_(MGI-2B16B6) with a C-terminal 6xHis-tag (natural protein)
chain: MYKIKCFYDQFSSGELFNYCQFLDNSSNQKINTRGTVYQYIIYVLTGDLYLQKDIDENLEFIHQAENNPNEVYSGGGQGFCWDISAEKVVFYHNEFDEEDGWPDLSCSLHTFKTALIAWNAFLQLPKSIHSVVETVIEE
B1 returned a Kd in test [2] of 35.1 nM.
